Source: patent US5876717A (Ajinomoto Co., Inc., dated 1999)

Assays:
[1] = tested on: β chain of IL-2 receptor; assay: Inhibition of binding of 125I-labelled IL-2 to MOLT4 cells transfected with cDNA for the β chain of IL-2 receptor; set-up: species or system human; conditions: 4° C.
Method: To the resulting suspension were added polypeptide Fv(TU27), TU27 monoclonal antibody (originating in hybridoma FERM BP-2510), polypeptide Fv(TU25) and TU25 monoclonal antibody (originating in hybridoma FERM BP-3529) diluted with the same type culture medium to an appropriate concentration, and this was reacted for one hour at 4° C.

[2] = tested on: β chain of IL-2 receptor on the surface of each YT cell; assay: Inhibition of binding of 125I-labelled TU27 or TU25 antibody to YT cells; set-up: species or system human; conditions: 4° C.
Method: In an RPMI-1640 culture medium containing 0.5% BSA and 0.02% […] there were suspended 5×10^5 YT cells to which were added polypeptide Fv(TU27), TU27 antibody, polypeptide Fv(TU25) and TU25 antibody diluted with the same type culture medium to an appropriate concentration and then reacted for one hour at 4° C. Then a TU27 or TU25 antibody labelled with ^125 I according to the chloramine T method was added to the mixture which was subjected to a 2 hour reaction at 4° C., after which the radioactivity bound to cell surfaces was measured.

[3] = molecular target: β chain of human IL-2 receptor (human, UniProt P14784); assay: competition with 125I-labelled TU27 or TU25 antibody on YT cells
Method: In an RPMI-1640 culture medium containing 0.5% BSA and 0.02% NaN_2 there were suspended 5×10^5 YT cells to which were added polypeptide Fv(TU27), TU27 antibody, polypeptide Fv(TU25) and TU25 antibody diluted with the same type culture medium to an appropriate concentration and then reacted for one hour at 4° C. Then a TU27 or TU25 antibody labelled with ^125I according to the chloramine T method was added to the mixture which was subjected to a 2 hour reaction at 4° C., after which the radioactivity bound to cell surfaces was measured.

B1: Fv(TU27): single chain polypeptide of 240 amino acids consisting only of V regions of TU27 anti-IL-2 receptor β chain antibody (protein)
scFv: MDILLTQSPAILSVSPGERVSFSCRASQSIGTSIHWYQQRTNGSPRLLIKYASESLSGIPSRFSGSGSGTDFTLSITSVDSEDIADYYCQQTNSWPTTFGGGTKLELKVDKSSGSGSESKSTQVKLEESGPGLVKPSQSLSLTCTVTGYPITSDYAWDWIRQFPGNKLEWMGYVSYSGSTDYNPSLKSRISISRDTSKNQFFLQLNSVTTEDTATYYCARGGFPYAMDYWGQGTTVTVSS
- activity to inhibit the binding of IL-2 to a β chain of an IL-2 receptor [1]: have activity to inhibit the binding of IL-2
- activity to inhibit the binding between TU27 or TU25 monoclonal antibody and the β chain of IL-2 receptor [2]: have activity to inhibit the binding

B2: polypeptide Fv(TU25) (scFv)
scFv: MDIQLTQSPAILSVSPGERVSFSCRASQTIGTSIHWYQQRTNGSPRLLIKYASESISGIPSRFSGSGSGTDFTLSINNVESEDIADYYCQQTNTWPTTFGSGTKLELKVDKSSGSGSESKSTQVKLEQSGGGLVKPGGSLKLSCAASGFAFSSYDMSWVRQTPEKRLNWVATFSSDGSDTDYPDSVKGRFTISRDNARNTLYLQMSSLRSEDTALYYCARGYPYAMDYWGQGTTVTVSS
- activity to inhibit the binding of IL-2 to a β chain of an IL-2 receptor [1]: have activity to inhibit the binding of IL-2
- activity to inhibit the binding between TU27 or TU25 monoclonal antibody and the β chain of IL-2 receptor [2]: have activity to inhibit the binding
- binding result [3]: binds
